For experiment [1], the target named is VEGFR2 expressed on HUVEC cells (human) (UniProt P35968). As to the kind of experiment: cell-based or functional assay.
The next experiment addresses T1, mouse VEGFR2 (mouse, UniProt P35918 20-762, limits assumed).
T1 construct: Assay and construct of the 'further study' are not described
As to the kind of experiment: not described ("a further study").

Chain of VEGFR2 expressed on HUVEC cells (human) (P35968 20-1356): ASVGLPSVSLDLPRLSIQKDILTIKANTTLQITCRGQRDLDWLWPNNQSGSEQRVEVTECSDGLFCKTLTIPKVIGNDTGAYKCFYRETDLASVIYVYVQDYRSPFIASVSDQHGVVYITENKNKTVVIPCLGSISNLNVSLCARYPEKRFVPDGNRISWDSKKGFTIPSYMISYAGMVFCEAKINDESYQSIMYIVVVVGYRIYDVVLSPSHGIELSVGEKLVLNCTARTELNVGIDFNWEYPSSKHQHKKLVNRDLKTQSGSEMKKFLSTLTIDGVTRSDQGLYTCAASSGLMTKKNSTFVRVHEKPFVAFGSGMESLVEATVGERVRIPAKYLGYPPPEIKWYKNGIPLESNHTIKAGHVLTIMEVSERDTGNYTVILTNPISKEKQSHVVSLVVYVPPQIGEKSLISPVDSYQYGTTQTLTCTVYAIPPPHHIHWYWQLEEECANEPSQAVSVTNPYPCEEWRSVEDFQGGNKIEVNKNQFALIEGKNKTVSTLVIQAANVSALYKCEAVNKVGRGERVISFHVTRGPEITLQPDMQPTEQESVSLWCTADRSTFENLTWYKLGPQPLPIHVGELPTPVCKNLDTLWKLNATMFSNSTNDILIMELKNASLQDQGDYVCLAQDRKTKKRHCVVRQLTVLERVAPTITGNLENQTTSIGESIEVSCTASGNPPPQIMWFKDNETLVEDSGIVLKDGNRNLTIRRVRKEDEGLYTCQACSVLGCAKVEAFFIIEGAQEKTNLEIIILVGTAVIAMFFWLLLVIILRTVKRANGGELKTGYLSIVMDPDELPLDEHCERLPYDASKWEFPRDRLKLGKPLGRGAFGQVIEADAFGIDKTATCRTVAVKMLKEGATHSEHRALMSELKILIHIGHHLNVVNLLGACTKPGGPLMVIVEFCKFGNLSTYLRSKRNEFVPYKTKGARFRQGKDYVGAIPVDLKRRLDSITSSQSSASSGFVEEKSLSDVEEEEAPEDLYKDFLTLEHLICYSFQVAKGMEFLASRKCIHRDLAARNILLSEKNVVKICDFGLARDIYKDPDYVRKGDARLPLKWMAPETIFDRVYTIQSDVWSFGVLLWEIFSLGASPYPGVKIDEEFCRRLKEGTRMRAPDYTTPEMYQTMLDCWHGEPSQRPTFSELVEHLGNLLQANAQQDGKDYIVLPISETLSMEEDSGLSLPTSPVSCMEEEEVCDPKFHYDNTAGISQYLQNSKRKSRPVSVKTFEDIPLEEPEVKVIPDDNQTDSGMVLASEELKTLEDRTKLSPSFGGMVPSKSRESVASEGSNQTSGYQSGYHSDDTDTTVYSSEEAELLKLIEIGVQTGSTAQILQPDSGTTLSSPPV
T1 sequence (P35918 20-762 limits assumed): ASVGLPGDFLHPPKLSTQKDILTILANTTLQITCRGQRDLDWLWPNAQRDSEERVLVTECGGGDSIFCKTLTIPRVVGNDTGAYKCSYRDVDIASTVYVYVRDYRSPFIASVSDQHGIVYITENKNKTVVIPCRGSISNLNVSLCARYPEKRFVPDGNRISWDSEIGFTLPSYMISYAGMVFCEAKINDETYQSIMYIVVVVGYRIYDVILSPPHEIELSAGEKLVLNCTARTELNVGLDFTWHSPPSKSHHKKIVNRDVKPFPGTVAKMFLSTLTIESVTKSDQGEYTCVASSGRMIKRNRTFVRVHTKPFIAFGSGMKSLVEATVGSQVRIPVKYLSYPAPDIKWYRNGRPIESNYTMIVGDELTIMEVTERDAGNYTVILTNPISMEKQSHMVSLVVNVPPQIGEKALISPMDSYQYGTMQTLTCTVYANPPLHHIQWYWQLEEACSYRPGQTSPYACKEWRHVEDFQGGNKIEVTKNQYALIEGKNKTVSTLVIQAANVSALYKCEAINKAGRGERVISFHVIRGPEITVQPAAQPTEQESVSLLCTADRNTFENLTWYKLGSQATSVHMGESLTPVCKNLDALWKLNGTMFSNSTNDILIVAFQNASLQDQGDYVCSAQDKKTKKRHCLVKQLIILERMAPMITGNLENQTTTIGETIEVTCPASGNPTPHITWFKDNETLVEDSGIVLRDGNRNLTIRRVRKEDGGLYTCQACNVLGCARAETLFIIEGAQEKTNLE

normal IgG (antibody) gave an HUVEC proliferation (VEGF-induced, cell count after 48 hours) in experiment [1] of 1 µg/mL.

B1: AC88 anti-VEGFR2 monoclonal antibody (antibody, human IgG1, kappa, V domains shown)
VH: EVQLVESGGGLVKPGGSLRLSCAASGFTFSSYSMTWVRQAPGKGLEWVSSISSSSSYIYYADSVKGRFTISRDNAKNSLYLQMNSLRAEDTAVYYCAKATSGYMDVWGQGTTVTVSS
VL: DIQMTQSPSSLSASVGDRVTITCQASQDINNYLNWYQQKPGKAPKLLIYDASNLETGVPSRFSGSGSGTDFTLTISSLESEDIATYYCQQHVNYPLTFGGGTKVEIKR
notes: Fully human IgG1 kappa from a hybridoma; also called AC88 antibody; anti-VEGFR2 antibody
Regarding B1, the binding result with mouse VEGFR2 is recorded as “no binding”.

These data come from patent US20110038874A1 (SHANGHAI AOSAIERSI BIOTECH, published 2011).
